Patent publication US20260167699A1 (Chugai, published 2026)

B1: GpH7-A5/GpH7-B3 variant A330_12R/GpL16-k0 (antibody, human IgG1, kappa)
heavy 1: not shown
heavy 2: not shown
light: DIVMTQSPLSLPVTPGEPASISCQASESLVHSNRNTYLHWYLQKPGQSPQLLIYKVSNRFSGVPDRFSGSGSGTDFTLKISRVEAEDVGVYYCSQNTHVPPTFGQGTKVEIERTVAAPSVFIFPPSDEQLKSGTASVVCLLNNFYPREAKVQWKVDNALQSGNSQESVTEQDSKDSTYSLSSTLTLSKADYEKHKVYACEVTHQGLSSPVTKSFNRGEC
notes: He Ab; copies: 1 + 1 + 2
B2: GpH7-A5/GpH7-B3 variant A330_04F/GpL16-k0 (antibody, human IgG1, kappa)
heavy 1: not shown
heavy 2: not shown
light: B1 light
notes: He Ab; copies: 1 + 1 + 2
B3: GpH7-A5/GpH7-B3 variant D270_08L/GpL16-k0 (antibody, human IgG1, kappa)
heavy 1: not shown
heavy 2: not shown
light: B1 light
notes: He Ab; copies: 1 + 1 + 2
B4: GpH7-A5/GpH7-B3 variant A330_11K/GpL16-k0 (antibody, human IgG1, kappa)
heavy 1: not shown
heavy 2: not shown
light: B1 light
notes: He Ab; copies: 1 + 1 + 2
B5: GpH7-A5/GpH7-B3 variant A327_20W/GpL16-k0 (antibody, human IgG1, kappa)
heavy 1: not shown
heavy 2: not shown
light: B1 light
notes: He Ab; copies: 1 + 1 + 2
B6: GpH7-A5/GpH7-B3 variant D270_18N/GpL16-k0 (antibody, human IgG1, kappa)
heavy 1: not shown
heavy 2: not shown
light: B1 light
notes: He Ab; copies: 1 + 1 + 2
B7: GpH7-A5/GpH7-B3 variant D270_07I/GpL16-k0 (antibody, human IgG1, kappa)
heavy 1: not shown
heavy 2: not shown
light: B1 light
notes: He Ab; copies: 1 + 1 + 2
B8: GpH7-A5/GpH7-B3 variant E269_14T/GpL16-k0 (antibody, human IgG1, kappa)
heavy 1: not shown
heavy 2: not shown
light: B1 light
notes: He Ab; copies: 1 + 1 + 2
B9: GpH7-A5/GpH7-B3 variant E269_09D/GpL16-k0 (antibody, human IgG1, kappa)
heavy 1: not shown
heavy 2: not shown
light: B1 light
notes: He Ab; copies: 1 + 1 + 2
B10: GpH7-A5/GpH7-B3 variant D270_10E/GpL16-k0 (antibody, human IgG1, kappa)
heavy 1: not shown
heavy 2: not shown
light: B1 light
notes: He Ab; copies: 1 + 1 + 2
B11: GpH7-A5/GpH7-B3 variant D270_06M/GpL16-k0 (antibody, human IgG1, kappa)
heavy 1: not shown
heavy 2: not shown
light: B1 light
notes: He Ab; copies: 1 + 1 + 2
B12: GpH7-A5/GpH7-B3 variant A330_07I/GpL16-k0 (antibody, human IgG1, kappa)
heavy 1: not shown
heavy 2: not shown
light: B1 light
notes: He Ab; copies: 1 + 1 + 2
B13: GpH7-A5/GpH7-B3 variant A330_03V/GpL16-k0 (antibody, human IgG1, kappa)
heavy 1: not shown
heavy 2: not shown
light: B1 light
notes: He Ab; copies: 1 + 1 + 2
B14: GpH7-A5/GpH7-B3 variant A330_20W/GpL16-k0 (antibody, human IgG1, kappa)
heavy 1: not shown
heavy 2: not shown
light: B1 light
notes: He Ab; copies: 1 + 1 + 2
B15: GpH7-A5/GpH7-B3 variant Y300_01G/GpL16-k0 (antibody, human IgG1, kappa)
heavy 1: not shown
heavy 2: not shown
light: B1 light
notes: copies: 1 + 1 + 2
B16: GpH7-A5/GpH7-B3 variant Y300_08L/GpL16-k0 (antibody, human IgG1, kappa)
heavy 1: not shown
heavy 2: not shown
light: B1 light
notes: copies: 1 + 1 + 2
B17: GpH7-A5/GpH7-B3 variant Y300_06M/GpL16-k0 (antibody, human IgG1, kappa)
heavy 1: not shown
heavy 2: not shown
light: B1 light
notes: copies: 1 + 1 + 2
B18: GpH7-A5/GpH7-B3 variant Y300_10E/GpL16-k0 (antibody, human IgG1, kappa)
heavy 1: not shown
heavy 2: not shown
light: B1 light
notes: copies: 1 + 1 + 2
B19: GpH7-A5/GpH7-B3 variant Y300_07I/GpL16-k0 (antibody, human IgG1, kappa)
heavy 1: not shown
heavy 2: not shown
light: B1 light
notes: copies: 1 + 1 + 2
B20: GpH7-A5/GpH7-B3 variant Y300_20W/GpL16-k0 (antibody, human IgG1, kappa)
heavy 1: not shown
heavy 2: not shown
light: B1 light
notes: copies: 1 + 1 + 2
B21: GpH7-A5/GpH7-B3 variant Y300_19Q/GpL16-k0 (antibody, human IgG1, kappa)
heavy 1: not shown
heavy 2: not shown
light: B1 light
notes: copies: 1 + 1 + 2
B22: GpH7-A5/GpH7-B3 variant Y300_18N/GpL16-k0 (antibody, human IgG1, kappa)
heavy 1: not shown
heavy 2: not shown
light: B1 light
notes: copies: 1 + 1 + 2
B23: GpH7-A5/GpH7-B3 variant Y300_03V/GpL16-k0 (antibody, human IgG1, kappa)
heavy 1: not shown
heavy 2: not shown
light: B1 light
notes: copies: 1 + 1 + 2
B24: GpH7-A5/GpH7-B3 variant Y300_14T/GpL16-k0 (antibody, human IgG1, kappa)
heavy 1: not shown
heavy 2: not shown
light: B1 light
notes: copies: 1 + 1 + 2
B25: GpH7-A5/GpH7-B3 variant Y300_13S/GpL16-k0 (antibody, human IgG1, kappa)
heavy 1: not shown
heavy 2: not shown
light: B1 light
notes: copies: 1 + 1 + 2
B26: GpH7-A5/GpH7-B3 variant Y300_11K/GpL16-k0 (antibody, human IgG1, kappa)
heavy 1: not shown
heavy 2: not shown
light: B1 light
notes: copies: 1 + 1 + 2
B27: GpH7-A5/GpH7-B3 variant Y300_04F/GpL16-k0 (antibody, human IgG1, kappa)
heavy 1: not shown
heavy 2: not shown
light: B1 light
notes: copies: 1 + 1 + 2
B28: GpH7-A5/GpH7-B3 variant Y300_16H/GpL16-k0 (antibody, human IgG1, kappa)
heavy 1: not shown
heavy 2: not shown
light: B1 light
notes: copies: 1 + 1 + 2
B29: GpH7-A5/GpH7-B3 variant Y300_02A/GpL16-k0 (antibody, human IgG1, kappa)
heavy 1: not shown
heavy 2: not shown
light: B1 light
notes: copies: 1 + 1 + 2
B30: GpH7-A5/GpH7-B3 variant Y300_09D/GpL16-k0 (antibody, human IgG1, kappa)
heavy 1: not shown
heavy 2: not shown
light: B1 light
notes: copies: 1 + 1 + 2

target: T1, FcγRIIIa extracellular domain, C-terminal His tag (human, UniProt P08637 17-208); assay: SPR, binding activity relative to GpH7-A5/GpH7-B3/GpL16-k0 (=100)
T1 construct: extracellular domain; also called 3a
T1 sequence (P08637 other isoform, or with tags, fused parts or gaps): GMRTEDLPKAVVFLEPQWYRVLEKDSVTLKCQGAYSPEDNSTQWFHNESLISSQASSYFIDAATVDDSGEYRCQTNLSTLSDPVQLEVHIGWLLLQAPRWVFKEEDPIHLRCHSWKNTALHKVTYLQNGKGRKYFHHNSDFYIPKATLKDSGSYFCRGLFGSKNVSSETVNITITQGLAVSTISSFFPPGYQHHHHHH

Row | He/Con 3a | Binder
1 | 77.3% | B1
2 | 144% | B2
3 | 65.1% | B3
4 | 91.8% | B4
5 | 52.6% | B5
6 | 51.2% | B6
7 | 63.1% | B7
8 | 59.7% | B8
9 | 106% | B9
10 | 112% | B10
11 | 60% | B11
12 | 101% | B12
13 | 98.8% | B13
14 | 102% | B14

target: T2, FcγRIIIa (human, UniProt P08637 17-208); assay: SPR (Biacore);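 note: antibody variants captured on an SPR sensor chip, with FcγRIIIa passed over as analyte in HBS-EP+ buffer at 25 °C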
T2 construct: extracellular domain; also called 3a; FcγRIIIa extracellular domain
T2 sequence (P08637 other isoform, or with tags, fused parts or gaps): as above

Row | He/Con 3a | Binder
15 | 88.6 % of GpH7-A5/GpH7-B3/GpL16-k0 | B15
16 | 114 % of GpH7-A5/GpH7-B3/GpL16-k0 | B16
17 | 106 % of GpH7-A5/GpH7-B3/GpL16-k0 | B17
18 | 113 % of GpH7-A5/GpH7-B3/GpL16-k0 | B18
19 | 103 % of GpH7-A5/GpH7-B3/GpL16-k0 | B19
20 | 101 % of GpH7-A5/GpH7-B3/GpL16-k0 | B20
21 | 105 % of GpH7-A5/GpH7-B3/GpL16-k0 | B21
22 | 96 % of GpH7-A5/GpH7-B3/GpL16-k0 | B22
23 | 83.8 % of GpH7-A5/GpH7-B3/GpL16-k0 | B23
24 | 92.8 % of GpH7-A5/GpH7-B3/GpL16-k0 | B24
25 | 80.3 % of GpH7-A5/GpH7-B3/GpL16-k0 | B25
26 | 63.7 % of GpH7-A5/GpH7-B3/GpL16-k0 | B26
27 | 100 % of GpH7-A5/GpH7-B3/GpL16-k0 | B27
28 | 102 % of GpH7-A5/GpH7-B3/GpL16-k0 | B28
29 | 88.1 % of GpH7-A5/GpH7-B3/GpL16-k0 | B29
30 | 104 % of GpH7-A5/GpH7-B3/GpL16-k0 | B30
